{
  "source": "patent US20220281976A1",
  "key": {"human CD33 (human) [1]": {"target": "human CD33 (human) (UniProt P20138)", "sequence (P20138 18-364)": "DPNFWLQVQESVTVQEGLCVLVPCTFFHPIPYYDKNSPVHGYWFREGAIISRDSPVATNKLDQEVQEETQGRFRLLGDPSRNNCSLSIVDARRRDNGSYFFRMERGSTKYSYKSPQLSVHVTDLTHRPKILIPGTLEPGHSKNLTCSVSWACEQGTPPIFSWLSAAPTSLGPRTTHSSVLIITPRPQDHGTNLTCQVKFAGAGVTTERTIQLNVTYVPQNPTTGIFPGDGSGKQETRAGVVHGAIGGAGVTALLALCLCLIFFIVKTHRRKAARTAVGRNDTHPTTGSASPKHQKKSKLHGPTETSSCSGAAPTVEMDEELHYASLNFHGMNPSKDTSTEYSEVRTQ", "assay": "flow cytometry, human primary T cells"}, "human CD33 (human) [2]": {"target": "human CD33 (human) (UniProt P20138)", "assay": "flow cytometry, human primary dendritic cells"}, "human CD33 (human) [3]": {"target": "human CD33 (human) (UniProt P20138)", "assay": "flow cytometry, human primary monocytes"}, "human CD33 (human) [4]": {"target": "human CD33 (human) (UniProt P20138)", "assay": "flow cytometry, human primary macrophages"}, "human CD33 (human) [5]": {"target": "human CD33 (human) (UniProt P20138)", "assay": "cell-based or functional assay"}},
  "data": [
    {"binder": "C-51 (antibody, V domains shown) VH: QLQLQESGPGLVKPSETLSLTCTVSGGSISSSSYYWGWIRQPPGKGLEWIGSIYYSGSTYYNPSLKSRVTISVDTSKNQFSLKLSSVTAADTAVYYCARGAPHDYGGGVGWFDPWGQGTTVTVSS VL: DIQMTQSPSSVSASVGDRVTITCRASQGISSWLAWYQQKPGKAPKLLIYAASNLQSGVPSRFSGSGSGTDFTLTISSLQPEDFATYYCQQSRVFPWTFGGGTKVEIK", "values": [
      {"measurement": "T cell MFI", "setting": "human CD33 (human) [1]", "value": 29.3},
      {"measurement": "DC MFI", "setting": "human CD33 (human) [2]", "value": 496},
      {"measurement": "Monocyte MFI", "setting": "human CD33 (human) [3]", "value": 126},
      {"measurement": "Macrophage MFI", "setting": "human CD33 (human) [4]", "value": 656},
      {"measurement": "Percent CD33 Surface Expression, DC % CD33", "setting": "human CD33 (human) [5]", "value": 86, "unit": "%"},
      {"measurement": "Percent CD33 Surface Expression, Monocyte % CD33", "setting": "human CD33 (human) [5]", "value": 88, "unit": "%"}
    ]}
  ]
}
